In patent US10618965 (dated 2020):
One block for each binder: values may come before it.

What was measured:
[1] = molecular target: human FcRn (with beta2-microglobulin) (human); assay: SPR, pH 7.0
[2] = molecular target: human FcRn (with beta2-microglobulin) (human); assay: SPR, pH 7.0; remark: listed apart in the source
[3] = molecular target: human FcRn (with beta2-microglobulin) (human); assay: SPR, pH 7.0; remark: listed apart in the source
[4] = molecular target: human FcRn (with beta2-microglobulin) (human); assay: SPR, pH 7.0; remark: listed apart in the source
[5] = molecular target: human FcRn (with beta2-microglobulin) (human); assay: SPR, neutral pH
mouse FcRn = molecular target: T1, mouse FcRn (mouse, UniProt Q61559); assay: SPR, pH 7.0
T1 chain 1: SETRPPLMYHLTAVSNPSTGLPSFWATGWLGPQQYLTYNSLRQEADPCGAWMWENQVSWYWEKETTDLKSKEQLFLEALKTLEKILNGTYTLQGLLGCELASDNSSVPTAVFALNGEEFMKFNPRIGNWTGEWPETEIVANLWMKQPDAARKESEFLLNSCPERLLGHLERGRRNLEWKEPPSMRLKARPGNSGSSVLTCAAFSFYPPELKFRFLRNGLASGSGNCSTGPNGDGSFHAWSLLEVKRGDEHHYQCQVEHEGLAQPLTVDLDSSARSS
T1 chain 2: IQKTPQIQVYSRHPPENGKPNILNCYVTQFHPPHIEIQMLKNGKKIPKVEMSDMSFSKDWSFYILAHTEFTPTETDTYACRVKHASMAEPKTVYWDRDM

human FcgRIIa(R) = molecular target: T2, human FcgRIIa(R) (human); assay: SPR
T2 chain: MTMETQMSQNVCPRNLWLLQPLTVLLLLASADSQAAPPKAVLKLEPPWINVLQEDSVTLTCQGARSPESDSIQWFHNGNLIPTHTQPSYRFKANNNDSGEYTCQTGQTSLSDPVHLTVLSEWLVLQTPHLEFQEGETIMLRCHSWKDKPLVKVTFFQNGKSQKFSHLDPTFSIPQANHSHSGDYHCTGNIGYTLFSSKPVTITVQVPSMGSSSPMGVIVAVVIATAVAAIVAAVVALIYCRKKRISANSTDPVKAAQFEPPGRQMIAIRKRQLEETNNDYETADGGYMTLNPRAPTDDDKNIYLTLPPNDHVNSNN

human FcgRIIa(H) = molecular target: T3, human FcgRIIa(H) (human); assay: SPR
T3 chain: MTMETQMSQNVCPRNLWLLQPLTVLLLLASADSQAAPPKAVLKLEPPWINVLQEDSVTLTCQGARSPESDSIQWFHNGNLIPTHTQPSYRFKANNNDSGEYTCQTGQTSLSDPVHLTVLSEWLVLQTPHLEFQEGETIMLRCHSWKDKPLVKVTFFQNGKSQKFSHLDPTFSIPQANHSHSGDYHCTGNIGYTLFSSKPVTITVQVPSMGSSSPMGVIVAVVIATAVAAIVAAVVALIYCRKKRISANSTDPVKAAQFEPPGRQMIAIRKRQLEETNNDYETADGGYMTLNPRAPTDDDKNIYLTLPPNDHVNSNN

human FcgRIIb = molecular target: T4, human FcgRIIb (human); assay: SPR
T4 chain: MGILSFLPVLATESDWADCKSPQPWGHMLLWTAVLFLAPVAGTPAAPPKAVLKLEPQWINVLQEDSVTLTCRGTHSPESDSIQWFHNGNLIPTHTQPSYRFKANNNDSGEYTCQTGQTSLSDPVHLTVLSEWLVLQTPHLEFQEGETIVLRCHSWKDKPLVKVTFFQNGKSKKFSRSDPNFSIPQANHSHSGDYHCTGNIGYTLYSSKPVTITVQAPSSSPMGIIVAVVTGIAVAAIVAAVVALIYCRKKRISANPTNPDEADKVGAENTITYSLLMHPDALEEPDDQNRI

human FcgRIa = human FcgRIa (human); assay: SPR
Chain of human FcgRIa (human) (chain, as listed by the source): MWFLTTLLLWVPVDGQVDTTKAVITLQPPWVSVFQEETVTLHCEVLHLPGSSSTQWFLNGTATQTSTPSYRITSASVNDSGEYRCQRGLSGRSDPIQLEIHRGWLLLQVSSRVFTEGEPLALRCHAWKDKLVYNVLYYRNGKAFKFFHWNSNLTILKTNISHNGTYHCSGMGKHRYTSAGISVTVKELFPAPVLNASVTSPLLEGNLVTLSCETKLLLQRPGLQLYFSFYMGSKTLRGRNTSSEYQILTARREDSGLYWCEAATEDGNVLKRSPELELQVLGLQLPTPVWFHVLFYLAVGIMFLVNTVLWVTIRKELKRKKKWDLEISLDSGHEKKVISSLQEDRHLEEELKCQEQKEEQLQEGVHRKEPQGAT

Kd [1]: 36 nM | Kd [2]: 36 nM
B1: IgG1-F140 (antibody)
chain 1: QVQLQESGPGLVKPSETLSLTCAVSGHSISHDHAWSWVRQPPGEGLEWIGFISYSGITNYNPSLQGRVTISRDNSKNTLYLQMNSLRAEDTAVYYCARSLARTTAMDYWGEGTLVTVSSASTKGPSVFPLAPSSKSTSGGTAALGCLVKDYFPEPVTVSWNSGALTSGVHTFPAVLQSSGLYSLSSVVTVPSSSLGTQTYICNVNHKPSNTKVDKKVEPKSCDKTHTCPPCPAPELLGGPKVFLFPPKPKDTLYISRTPEVTCVVVDVSHEDPEVKFNWYVDGVEVHNAKTKPREEQYNSTYRVVSVLTPLHQDWLNGKEYKCKVSNKALPAPIEKTISKAKGQPREPQVYTLPPSRDELTKNQVSLTCLVKGFYPSDIAVEWESNGQPENNYKTTPPVLDSDGSFFLYSKLTVDKSRWQQGNVFSCSVMHEALHYHYTQKSLSLSP
chain 2: not shown

Kd [3]: 22 nM | Kd [4]: 22 nM
B2: IgG1-F698 (antibody)
chain 1: QVQLQESGPGLVKPSETLSLTCAVSGHSISHDHAWSWVRQPPGEGLEWIGFISYSGITNYNPSLQGRVTISRDNSKNTLYLQMNSLRAEDTAVYYCARSLARTTAMDYWGEGTLVTVSSASTKGPSVFPLAPSSKSTSGGTAALGCLVKDYFPEPVTVSWNSGALTSGVHTFPAVLQSSGLYSLSSVVTVPSSSLGTQTYICNVNHKPSNTKVDKKVEPKSCDKTHTCPPCPAPELLGGPSVFLFPPKPKDTLYISRTPEVTCVVVDVSHEDPEVKFNWYVDGVEVHEAKTKPREEQYNSTYRVVSVLQVLHADWLNGKEYKCKVSNKALPAPIEKTISKAKGQPREPQVYTLPPSRDELTKNQVSLTCLVKGFYPSDIAVEWESNGQPENNYKTTPPVLDSDGSFFLYSKLTVDKSRWQQGNVFSCSVMHEALHYHYTQKSLSLSP
chain 2: not shown

Kd [3]: 23 nM
B3: IgG1-F699 (antibody)
chain 1: QVQLQESGPGLVKPSETLSLTCAVSGHSISHDHAWSWVRQPPGEGLEWIGFISYSGITNYNPSLQGRVTISRDNSKNTLYLQMNSLRAEDTAVYYCARSLARTTAMDYWGEGTLVTVSSASTKGPSVFPLAPSSKSTSGGTAALGCLVKDYFPEPVTVSWNSGALTSGVHTFPAVLQSSGLYSLSSVVTVPSSSLGTQTYICNVNHKPSNTKVDKKVEPKSCDKTHTCPPCPAPELLGGPKVFLFPPKPKDTLYISRTPEVTCVVVDVSHEDPEVKFNWYVDGVEVHEAKTKPREEQYNSTYRVVSVLQVLHADWLNGKEYKCKVSNKALPAPIEKTISKAKGQPREPQVYTLPPSRDELTKNQVSLTCLVKGFYPSDIAVEWESNGQPENNYKTTPPVLDSDGSFFLYSKLTVDKSRWQQGNVFSCSVMHEALHYHYTQKSLSLSP
chain 2: not shown

Kd [1]: 30 nM | Kd [5]: 30 nM | Kd [2]: 30 nM
B4: IgG1-F21 (antibody)
chain 1: QVQLQESGPGLVKPSETLSLTCAVSGHSISHDHAWSWVRQPPGEGLEWIGFISYSGITNYNPSLQGRVTISRDNSKNTLYLQMNSLRAEDTAVYYCARSLARTTAMDYWGEGTLVTVSSASTKGPSVFPLAPSSKSTSGGTAALGCLVKDYFPEPVTVSWNSGALTSGVHTFPAVLQSSGLYSLSSVVTVPSSSLGTQTYICNVNHKPSNTKVDKKVEPKSCDKTHTCPPCPAPELLGGPSVFLFPPKPKDTLYISRTPEVTCVVVDVSHEDPEVKFNWYVDGVEVHNAKTKPREEQYNSTYRVVSVLTPLHQDWLNGKEYKCKVSNKALPAPIEKTISKAKGQPREPQVYTLPPSRDELTKNQVSLTCLVKGFYPSDIAVEWESNGQPENNYKTTPPVLDSDGSFFLYSKLTVDKSRWQQGNVFSCSVMHEALHYHYTQKSLSLSP
chain 2: not shown

Kd [4]: 35 nM
B5: IgG1-F763 (antibody)
chain 1: QVQLQESGPGLVKPSETLSLTCAVSGHSISHDHAWSWVRQPPGEGLEWIGFISYSGITNYNPSLQGRVTISRDNSKNTLYLQMNSLRAEDTAVYYCARSLARTTAMDYWGEGTLVTVSSASTKGPSVFPLAPSSKSTSGGTAALGCLVKDYFPEPVTVSWNSGALTSGVHTFPAVLQSSGLYSLSSVVTVPSSSLGTQTYICNVNHKPSNTKVDKKVEPKSCDKTHTCPPCPAPELRGGPKVFLFPPKPKDTLYISRTPEVTCVVVDVSHEDPEVKFNWYVDGVEVHEAKTKPREEQYNSTYRVVSVLQVLHADWLNGKEYKCKVSNKALPAPIEKTISKAKGQPREPQVYTLPPSRDELTKNQVSLTCLVKGFYPSDIAVEWESNGQPENNYKTTPPVLDSDGSFFLYSKLTVDKSRWQQGNVFSCSVMHEALHYHYTQKSLSLSP
chain 2: not shown

Kd (mouse FcRn): 3.2 nM
B6: mF40 (antibody)
chain 1: DVQLQESGPVLVKPSQSLSLTCTVTGYSITSDHAWSWIRQFPGNKLEWMGYISYSGITTYNPSLKSRISITRDTSKNQFFLQLNSVTTGDTSTYYCARSLARTTAMDYWGQGTSVTVSSAKTTPPSVYPLAPGSAAQTNSMVTLGCLVKGYFPEPVTVTWNSGSLSSGVHTFPAVLQSDLYTLSSSVTVPSSTWPSETVTCNVAHPASSTKVDKKIVPRDCGCKPCICTVKEVSKVFIFPPKPKDVLYITLEPKVTCVVVDISKDDPEVQFSWFVDDVEVHTAQTQPREEQFNSTFRSVSELPIMHQDWLNGKEFKCRVNSAAFPAPIEKTISKTKGRPKAPQVYTIPPPKEQMAKDKVSLTCMITDFFPEDITVEWQWNGQPAENYKNTQPIMDTDGSYFVYSKLNVQKSNWEAGNTFTCSVLHEGLHWHHTEKSLSHSPGK
chain 2: not shown

Kd (mouse FcRn): 21 nM
B7: mF39 (antibody)
chain 1: DVQLQESGPVLVKPSQSLSLTCTVTGYSITSDHAWSWIRQFPGNKLEWMGYISYSGITTYNPSLKSRISITRDTSKNQFFLQLNSVTTGDTSTYYCARSLARTTAMDYWGQGTSVTVSSAKTTPPSVYPLAPGSAAQTNSMVTLGCLVKGYFPEPVTVTWNSGSLSSGVHTFPAVLQSDLYTLSSSVTVPSSTWPSETVTCNVAHPASSTKVDKKIVPRDCGCKPCICTVKEVSKVFIFPPKPKDVLYITLEPKVTCVVVDISKDDPEVQFSWFVDDVEVHTAQTQPREEQFNSTFRSVSELPIMHQDWLNGKEFKCRVNSAAFPAPIEKTISKTKGRPKAPQVYTIPPPKEQMAKDKVSLTCMITDFFPEDITVEWQWNGQPAENYKNTQPIMDTDGSYFVYSKLNVQKSNWEAGNTFTCSVLHEGLKNHHTEKSLSHSPGK
chain 2: not shown

Kd (mouse FcRn): 4 nM
B8: mF38 (antibody)
chain 1: DVQLQESGPVLVKPSQSLSLTCTVTGYSITSDHAWSWIRQFPGNKLEWMGYISYSGITTYNPSLKSRISITRDTSKNQFFLQLNSVTTGDTSTYYCARSLARTTAMDYWGQGTSVTVSSAKTTPPSVYPLAPGSAAQTNSMVTLGCLVKGYFPEPVTVTWNSGSLSSGVHTFPAVLQSDLYTLSSSVTVPSSTWPSETVTCNVAHPASSTKVDKKIVPRDCGCKPCICTVPEVSSVFIFPPKPKDVLYITLEPKVTCVVVDISKDDPEVQFSWFVDDVEVHTAQTQPREEQFNSTFRSVSELPIMHQDWLNGKEFKCRVNSAAFPAPIEKTISKTKGRPKAPQVYTIPPPKEQMAKDKVSLTCMITDFFPEDITVEWQWNGQPAENYKNTQPIMDTDGSYFVYSKLNVQKSNWEAGNTFTCSVLHEGLHWHHTEKSLSHSPGK
chain 2: not shown

Kd (human FcgRIIa(R)): 5000 nM | Kd (human FcgRIIa(H)): 5000 nM | Kd (human FcgRIIb): 6800 nM | Kd (human FcgRIa): 0.9 nM
B9: IL6R-F11/IL6R-L (antibody)
chain 1: not shown
chain 2: DIQMTQSPSSLSASVGDRVTITCRASQDISSYLNWYQQKPGKAPKLLIYYTSRLHSGVPSRFSGSGSGTDFTFTISSLQPEDIATYYCQQGNTLPYTFGQGTKVEIK
